Reference: PMC5564421
Where two headings read alike, the source gives them in different places.

Experiments:
[1] = target: WT* iso-1-Cytc (K72A variant of yeast iso-1-cytochrome c, with C102S) (yeast); assay: crystal structure
[2] = target: WT* iso-1-Cytc (K72A variant of yeast iso-1-cytochrome c, with C102S) (yeast); assay: SEC
[3] = target: WT* iso-1-Cytc (K72A variant of yeast iso-1-cytochrome c, with C102S) (yeast); assay: SEC; remark: listed apart in the source
[4] = target: WT* iso-1-Cytc (K72A variant of yeast iso-1-cytochrome c, with C102S) (yeast); assay: SEC; remark: listed apart in the source
[5] = target: WT* iso-1-Cytc (K72A variant of yeast iso-1-cytochrome c, with C102S) (yeast); assay: SEC; remark: listed apart in the source
[6] = target: WT* iso-1-Cytc (K72A variant of yeast iso-1-cytochrome c, with C102S) (yeast); assay: SEC; remark: listed apart in the source
[7] = target: Cytc from equine heart (equine) (UniProt P00004); assay: SEC
[8] = target: Cytc from equine heart (equine) (UniProt P00004); assay: SEC; remark: listed apart in the source

Sequence of Cytc from equine heart, P00004 1-105 (natural protein; other documents disagree on this pair) (P00004 whole entry): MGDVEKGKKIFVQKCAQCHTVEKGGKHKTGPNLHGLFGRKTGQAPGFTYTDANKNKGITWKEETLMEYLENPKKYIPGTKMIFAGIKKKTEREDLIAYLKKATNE

Row | Substance | stoichiometry N [1] | koff [2] [s⁻¹] | koff [3] [s⁻¹] | koff [4] [s⁻¹] | koff [5] [s⁻¹] | koff [6] [s⁻¹] | koff [7] [s⁻¹] | lifetime of the dimer [7] [days] | koff [8] [s⁻¹]
1 | WT* iso-1-Cytc (K72A variant of yeast iso-1-cytochrome c, with C102S) (natural protein) | 2 | 0.00055 | 0.0034 | 6.5e-06 | 1.6e-05 | 6.1e-05 | – | – | –
2 | Cytc from equine heart, P00004 1-105 (natural protein; other documents disagree on this pair) | – | – | – | – | – | – | 1.5e-05 | 7.4 | 1.6e-06
